These results are taken from publication PMC10490071.

Common to all, as to experiment: SEC-MALS + native gel or EMSA; static light scattering (DynaPro, Wyatt) after Superdex 200, 100 uL at >1 mg/mL in 10 mM PBS pH 7.4, flow 0.45 mL/min, LS, UV and dRI detection; 10% native-PAGE, 1 umol protein loaded; oligomeric state in solution
Experiment [1] concerns the target rFIP-nha N5+39A double glycosylation mutant, expressed in P. pastoris (Nectria haematococca).
Experiment [2] has as its target rFIP-nha N5A glycosylation mutant, expressed in P. pastoris (Nectria haematococca).
The target of experiment [3] is rFIP-nha N39A glycosylation mutant, expressed in P. pastoris (Nectria haematococca).
Experiment [4] concerns the target rFIP-nha wild-type (fungal immunomodulatory protein from Nectria haematococca), expressed in P. pastoris (Nectria haematococca).

For the substance “rFIP-nha N5+39A double glycosylation mutant, expressed in P. pastoris (natural protein)”, in experiment [1], the stoichiometry N – broadly, the number of molecules, sites or subunits per partner or assembly – was 4. For “rFIP-nha N5A glycosylation mutant, expressed in P. pastoris (natural protein)”, the stoichiometry N in experiment [2] is 4. With “rFIP-nha N39A glycosylation mutant, expressed in P. pastoris (natural protein)”, the stoichiometry N in experiment [3] was 4. With “rFIP-nha wild-type (fungal immunomodulatory protein from Nectria haematococca), expressed in P. pastoris (natural protein)”, the stoichiometry N in experiment [4] amounted to 4.
